Values of other authors, collected in PMC10618199.

Target: insulin receptor site-2 (Homo sapiens) (UniProt P06213)

insulin, sequence (P01308 90-110): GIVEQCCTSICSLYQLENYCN

For insulin (from UniProt P01308), the Kd is given as 0.4 µM.
